From US20060084085A1, “Methods and compositions for modulating Bax-mediated apoptosis” (priority 2004, published 2006)

Legend:
PCAF = target: T1, PCAF (Homo sapiens, UniProt Q92831); test: In vitro acetylation assay of Ku70 peptides with PCAF HAT domain and 3H-acetyl-CoA; type: biochemical; design: key to Relative Intensity of Acetylation: +: Band intensity was measured using NIH ImageJ software and normalized to the intensity of peptide 3.; ++: Band intensity was measured using NIH ImageJ software and normalized to the intensity of peptide 3.; +++: Band intensity was measured using NIH ImageJ software and normalized to the intensity of peptide 3.; +++++: Band intensity was measured using NIH ImageJ software and normalized to the intensity of peptide 3; details: for acetylation of peptide by PCAF in vitro: HAT domain of PCAF, 3H-acetyl-CoA, autoradiography; for Relative Intensity of Acetylation: Ku70 peptides acetylated by PCAF in vitro, band intensity normalized to peptide 3
T1 construct: 100 ng of recombinant HAT domains of p300, PCAF, or CBP
Protocol: FIG. 2B is a schematic representation of the synthetic peptide library spanning the entire length of Ku70. Each peptide was incubated with PCAF and 3H-acetyl-CoA and analyzed as in FIG. 2A.
(§1) FIG. 2C is a series of photographs showing acetylation peptides 16 and 29 as resolved by SDS-PAGE (PCAF reaction, left panel; CBP reaction, right panel). The acetylated domain of p53 (aa 315-325) served as a positive control for acetylation.
(§2) FIG. 2D is a photograph showing acetylation results of a series of scanning synthetic peptides of peptide 29. These scanning synthetic peptides were synthesized, with three out of the four lysines (K) substituted for arginine (R), a residue that cannot be acetylated. Peptides were incubated in acetylation reactions with PCAF or CBP and resolved by SDS-PAGE as above.
(§3) Due to the strong interaction between Ku70 and CBP and the efficient acetylation of Ku70 in vitro, we sought to define the regions of Ku70 that are targeted for acetylation. A library of 31 peptides was synthesized to cover the entire Ku70 sequence (FIG. 2B). Each of these peptides was incubated in an acetylation reaction as above, with either the HAT domain of PCAF or CBP. Again, a p53 peptide served as a positive control. […] Peptide 29 ([…]541-562), which contains four lysines (K542, K544, K553, and K556), is located within the C-terminal flexible linker region that we had previously identified as a potential target for acetylation (see FIG. 1 B).
(§4) To determine which lysines in peptide 29 were being acetylated in the reaction, a series of substitutions were made in which three out of the four lysines were replaced with arginine, a residue that cannot be acetylated. Each peptide was then incubated with either PCAF or CBP and analyzed by autoradiography as above.
(§5) Protein acetyltransferase assays were performed in 30 μl of reaction buffer containing 50 mM HEPES (pH 8.0), 10% glycerol, 1 mM DTT, 1 mM PMSF, 10 mM Na-butyrate, 1 μL (3H]-acetyl-CoA, 1 μg recombinant Ku70/80 complex or Ku70 peptide, and 100 ng of recombinant HAT domains of p300, PCAF, or CBP. Reactions were incubated at 30° C. for 1 hr and separated by SDS-PAGE (10%), stained with Coomassie blue, treated with EN^3HANCE autoradiography enhancer (NEN), dried, and exposed to film for 3-7 days. p53 peptides used as positive controls were p53315-3235 and p53377-389.

CBP = target: T2, CBP (Homo sapiens, UniProt Q92793); test: In vitro acetylation assay of Ku70 peptides with CBP HAT domain and 3H-acetyl-CoA; type: biochemical; details: autoradiography
T2 construct: 100 ng of recombinant HAT domains of p300, PCAF, or CBP
From the text: as §1, §2, §3, §4, §5

Ku70 acetylation = Ku70 acetylation level in cells (Ku70 IP, panAc-K antibody blot); type: cell-based, human; details: HeLa cells, NAM 5 mM, TSA 1 μM, normalized to DMSO treatment
Protocol: Briefly, HeLa cells were grown under one of the following conditions: 0.10/6 DMSO, 1 μM TSA, 5 mM nicotinamide (NAM), or TSA and NAM. Ku70 was immunoprecipitated from whole-cell extracts and probed for lysine acetylation using a panAc-Lys Ab.
To determine which class of deacetylase targets Ku70 in vivo, cells were treated with either TSA or NAM and the acetylation level of Ku70 was detected using the panAc-K antibody.
For immunoprecipitation (IP) of Ku70, 1 mg of protein was precleared by incubation with protein A/G Sepharose beads (Santa Cruz). The supernatant was incubated with agarose-conjugated goat polyclonal anti-Ku70 antibody (Santa Cruz), followed by three washes in 1% triton in PBS. The immunocomplex was separated by SDS-PAGE and proteins were detected with a rabbit polyclonal anti-pan-acetyl-lysine (panAc-K) antibody raised against acetylated rabbit's serum.

293T cells = test: Bax-mediated apoptosis in 293T cells transfected with YFP-Bax and Ku70 (apoptotic nuclei scored); type: cell-based, human; details: for effect on the ability of Ku70 to suppress Bax-mediated apoptosis: 293T cells cotransfected with YFP-Bax and Ku70, apoptotic nuclei scored 24 hr posttransfection
Protocol: 293T cells were cotransfected with YFP (Yellow Fluorescent Protein)-Bax and pcDNA-Ku70 in the presence or absence of TSA/NAM. The percentage of cells with apoptotic nuclei were scored 24 hr posttransfection.
(A) 293T cells were transfected with YFP (1 μg) or YFP-Bax (1 μg) and Ku70 (2 μg). Twleve hrs after the transfection, the medium was supplemented with resveratrol (0, 50 or 100 nM) and the percentage of YFP positive cells with apoptotic nuclei were scored 24 hrs post-transfection. Values represent the average of three experiments in which at least 200 cells were counted and error bars represent the standard error of the mean. […] (C,D) The indicated cell lines were transfected with either YFP (1 μg), YFP-Bax (1 μg) or YFP-Bax (1 μg) and Ku70 (2 μg), and percent apoptosis was determined.
Human embryonic kidney cells (293T) were transfected with a Bax-YFP expression construct and YFP-positive cells were scored 24 hr later for a fragmented nucleus, a well-characterized apoptotic phenotype (Sawada et al., Nat. Cell Biol. 5, 320-329 (2003)).
In revesterol experiments, 293T cells were transfected with 1 μg YFP or 1 μg YFP-Bax and 2 μg Ku70. 12 hours after the transfection the media was supplemented with varying amounts of resveratrol, (0, 50 or 100 nM) and the percentage of YFP positive cells with apoptotic nuclei were scored 24 hours post-transfection.

T2 sequence (Q92793 1323-1700 limits assumed): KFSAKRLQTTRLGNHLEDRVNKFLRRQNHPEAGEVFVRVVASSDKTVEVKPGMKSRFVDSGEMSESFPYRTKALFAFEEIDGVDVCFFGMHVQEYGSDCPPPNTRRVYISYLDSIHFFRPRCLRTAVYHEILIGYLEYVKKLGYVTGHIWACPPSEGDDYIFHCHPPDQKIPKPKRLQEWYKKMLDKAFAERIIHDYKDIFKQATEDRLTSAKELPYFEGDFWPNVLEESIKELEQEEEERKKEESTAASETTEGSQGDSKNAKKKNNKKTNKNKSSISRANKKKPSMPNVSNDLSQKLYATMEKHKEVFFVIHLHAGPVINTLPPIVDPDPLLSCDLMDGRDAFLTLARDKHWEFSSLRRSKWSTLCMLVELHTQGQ
T1 sequence (Q92831 503-651 limits assumed): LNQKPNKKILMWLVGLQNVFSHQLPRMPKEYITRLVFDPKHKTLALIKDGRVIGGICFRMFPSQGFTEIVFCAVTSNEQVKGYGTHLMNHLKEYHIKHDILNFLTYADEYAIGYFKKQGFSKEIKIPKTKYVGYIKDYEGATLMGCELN

| acetylation of peptide by PCAF in vitro (PCAF) | Relative Intensity of Acetylation (PCAF) | acetylation of peptide by CBP in vitro (CBP) | Molecule | increase in total acetylation level of Ku70 (Ku70 acetylation) | effect on the ability of Ku70 to suppress Bax-mediated apoptosis (293T cells) | suppression of Bax-mediated apoptosis (293T cells; 293T cells, YFP-Bax and Ku70, resveratrol 0, 50 or 100 nM added 12 hrs after transfection, scored 24 hrs post-transfection) |
| --- | --- | --- | --- | --- | --- | --- |
| strongly acetylated | +++++ | strongly acetylated | TKRKHDNEGSGSKRPKVEYSEE [Peptide 29, Ku70 peptide, amino acids 541-562] | – | – | – |
| strongly acetylated | +++ | strongly acetylated | RQIILEKEETEELKRFD [Peptide 16, Ku70 peptide, amino acids 325-341] | – | – | – |
| – | – | – | NC(=O)c1cccnc1 [NAM, nicotinamide] | 1.8 fold | abrogated the ability of Ku70 to suppress apoptosis | – |
| weakly acetylated | – | weakly acetylated | RRKR: peptide 29 variant retaining K553, the other three lysines replaced with arginine (TRRRHDNEGSGSKRPRVEYSEE) | – | – | – |
| – | – | – | CC(/C=C/C(=O)NO)=C\[C@@H](C)C(=O)c1ccc(N(C)C)cc1 [TSA, trichostatin A] | 2.4 fold | apoptosis suppression was completely blocked | – |
| acetylated by PCAF | +++ | – | LLLPSDTKRSQIY [Peptide 15, Ku70 peptide, amino acids 310-322] | – | – | – |
| – | – | – | Oc1ccc(/C=C/c2cc(O)cc(O)c2)cc1 [resveratrol, 3,5,4′-Trihydroxy-trans-stilbene] | – | – | dose-dependent suppression of Bax-mediated apoptosis |
| acetylated by PCAF | + | – | ASKAMFESQSEDELT [Peptide 3, Ku70 peptide, amino acids 44-58] | – | – | – |
| acetylated by PCAF | ++ | – | VQFKMSHKRIMLFTNED [Peptide 8, Ku70 peptide, amino acids 157-173] | – | – | – |

| Molecule | acetylation of peptide by PCAF in vitro (PCAF) | Relative Intensity of Acetylation (PCAF) | acetylation of peptide by CBP in vitro (CBP) | increase in total acetylation level of Ku70 (Ku70 acetylation) | effect on the ability of Ku70 to suppress Bax-mediated apoptosis (293T cells) | suppression of Bax-mediated apoptosis (293T cells; 293T cells, YFP-Bax and Ku70, resveratrol 0, 50 or 100 nM added 12 hrs after transfection, scored 24 hrs post-transfection) |
| --- | --- | --- | --- | --- | --- | --- |
| KRRR: peptide 29 variant retaining K542, the other three lysines replaced with arginine (TKRRHDNEGSGSRRPRVEYSEE) | acetylated to almost the same extent as the original peptide 29 | – | acetylated to almost the same extent as the original peptide 29 | – | – | – |
